Data as given in PMC2175287 (The Journal of Cell Biology, 2000).
One block for each molecule: values may come before it.

What was measured:
Mtr10p = Mtr10p (UniProt Q99189); assay: GST pull-down, S-tag blot, no extract; conditions: reference: mock-phosphorylated GST-Npl3p; sites S411
Mtr10-Protein A = target: T1, Mtr10-Protein A (S. cerevisiae, UniProt Q99189 1-972); assay: co-IP
T1 sequence (looked up): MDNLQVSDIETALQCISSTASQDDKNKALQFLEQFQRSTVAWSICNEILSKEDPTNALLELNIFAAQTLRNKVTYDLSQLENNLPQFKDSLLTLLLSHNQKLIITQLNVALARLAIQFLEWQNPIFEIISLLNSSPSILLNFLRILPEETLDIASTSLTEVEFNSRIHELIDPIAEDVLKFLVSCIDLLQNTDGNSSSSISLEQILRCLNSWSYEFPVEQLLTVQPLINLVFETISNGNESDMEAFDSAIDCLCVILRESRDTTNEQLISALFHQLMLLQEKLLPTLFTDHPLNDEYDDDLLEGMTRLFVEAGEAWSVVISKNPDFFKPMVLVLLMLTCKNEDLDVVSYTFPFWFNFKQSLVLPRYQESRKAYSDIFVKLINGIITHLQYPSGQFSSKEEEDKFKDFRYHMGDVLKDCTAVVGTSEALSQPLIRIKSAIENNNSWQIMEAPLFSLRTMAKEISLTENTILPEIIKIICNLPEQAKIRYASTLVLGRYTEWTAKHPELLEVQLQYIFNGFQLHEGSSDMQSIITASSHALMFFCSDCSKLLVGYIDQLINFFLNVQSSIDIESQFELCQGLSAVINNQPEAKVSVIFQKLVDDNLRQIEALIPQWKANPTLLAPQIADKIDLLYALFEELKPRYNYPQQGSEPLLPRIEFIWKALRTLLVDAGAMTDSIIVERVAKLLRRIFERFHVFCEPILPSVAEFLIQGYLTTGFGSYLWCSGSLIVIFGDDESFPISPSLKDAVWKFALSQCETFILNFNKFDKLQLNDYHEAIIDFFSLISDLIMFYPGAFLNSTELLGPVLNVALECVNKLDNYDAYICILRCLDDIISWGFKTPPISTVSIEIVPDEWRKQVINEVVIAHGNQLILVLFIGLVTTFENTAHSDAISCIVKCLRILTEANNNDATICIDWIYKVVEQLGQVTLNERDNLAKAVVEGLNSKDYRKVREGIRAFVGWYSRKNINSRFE

[1] = target: T2, in vitro-translated 35S-labeled Mtr10p (S. cerevisiae, UniProt Q99189 1-972, 35S-labeled)
T2 sequence (looked up): T1 sequence (looked up)

binding against the reference (Mtr10p): stronger
Molecule: Npl3p (from UniProt Q01560) Sky1p-phosphorylated GST-Npl3p

fold reduction of co-precipitated Npl3p in sky1Δ against wild-type yeast (Mtr10-Protein A): 3 fold
B1: Npl3p (endogenous) (natural protein, S. cerevisiae (endogenous in yeast), UniProt Q01560 1-414, looked up)
chain: MSEAQETHVEQLPESVVDAPVEEQHQEPPQAPDAPQEPQVPQESAPQESAPQEPPAPQEQNDVPPPSNAPIYEGEESHSVQDYQEAHQHHQPPEPQPYYPPPPPGEHMHGRPPMHHRQEGELSNTRLFVRPFPLDVQESELNEIFGPFGPMKEVKILNGFAFVEFEEAESAAKAIEEVHGKSFANQPLEVVYSKLPAKRYRITMKNLPEGCSWQDLKDLARENSLETTFSSVNTRDFDGTGALEFPSEEILVEALERLNNIEFRGSVITVERDDNPPPIRRSNRGGFRGRGGFRGGFRGGFRGGFSRGGFGGPRGGFGGPRGGYGGYSRGGYGGYSRGGYGGSRGGYDSPRGGYDSPRGGYSRGGYGGPRNDYGPPRGSYGGSRGGYDGPRGDYGPPRDAYRTRDAPRERSPTR

Kd [1]: 30 nM
B2: GST-Npl3p phosphorylated by Sky1p (natural protein, S. cerevisiae, UniProt Q01560 1-414, looked up)
chain: B1 chain
modifications: phosphoserine at 411 (single site of Sky1p)
